Laboratory results from patent US9176064B2, “Bisubstrate fluorescent probes for protein kinase CK2” (University of Tartu, priority 2012, dated 2015).
Where a SMILES comes first, the peptide text is derived from it. [ ]: non-standard residue; d: D form. The star is where a group is joined. X1 = O=C(CCCCCCCn1cnc2c(Br)c(Br)c(Br)c(Br)c21)*

Assays:
Assay in all cases: Kinase panel residual activity
Format in all cases: biochemical
Details in all cases: compound at 1 micromolar
p38b MAPK = p38b MAPK (Homo sapiens, UniProt Q15759)
ERK1 = ERK1 (Homo sapiens, UniProt P27361)
NUAK1 = target: T1, NUAK1 (Homo sapiens, UniProt O60285)
T1 sequence (O60285 1-661): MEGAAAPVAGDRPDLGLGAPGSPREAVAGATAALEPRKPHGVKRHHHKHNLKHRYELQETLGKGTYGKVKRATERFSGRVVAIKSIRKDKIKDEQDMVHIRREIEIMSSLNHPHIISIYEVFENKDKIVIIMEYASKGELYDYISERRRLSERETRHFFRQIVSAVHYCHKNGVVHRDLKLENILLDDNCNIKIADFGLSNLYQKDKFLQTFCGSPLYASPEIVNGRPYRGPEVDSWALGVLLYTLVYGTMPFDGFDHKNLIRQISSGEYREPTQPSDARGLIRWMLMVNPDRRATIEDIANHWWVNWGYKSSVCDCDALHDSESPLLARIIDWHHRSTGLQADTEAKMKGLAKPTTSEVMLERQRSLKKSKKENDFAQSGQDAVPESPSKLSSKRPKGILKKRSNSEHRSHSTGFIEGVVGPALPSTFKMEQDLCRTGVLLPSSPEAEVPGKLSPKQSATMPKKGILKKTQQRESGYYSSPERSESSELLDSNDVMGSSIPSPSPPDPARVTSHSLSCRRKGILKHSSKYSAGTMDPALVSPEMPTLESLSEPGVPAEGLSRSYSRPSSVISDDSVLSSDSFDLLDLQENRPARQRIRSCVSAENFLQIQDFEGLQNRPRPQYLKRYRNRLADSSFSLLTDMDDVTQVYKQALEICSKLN

MINK1 = MINK1 (Homo sapiens, UniProt Q8N4C8)
MST3 = MST3 (Homo sapiens, UniProt Q9Y6E0)
S6K1 = S6K1 (Homo sapiens, UniProt P23443)
GSK3b = GSK3b (Homo sapiens, UniProt P49841)
ROCK 2 = ROCK 2 (Homo sapiens, UniProt O75116)
TTBK1 = TTBK1 (Homo sapiens, UniProt Q5TCY1)
BRSK2 = target: T2, BRSK2 (Homo sapiens, UniProt Q8IWQ3)
T2 sequence (Q8IWQ3 1-736): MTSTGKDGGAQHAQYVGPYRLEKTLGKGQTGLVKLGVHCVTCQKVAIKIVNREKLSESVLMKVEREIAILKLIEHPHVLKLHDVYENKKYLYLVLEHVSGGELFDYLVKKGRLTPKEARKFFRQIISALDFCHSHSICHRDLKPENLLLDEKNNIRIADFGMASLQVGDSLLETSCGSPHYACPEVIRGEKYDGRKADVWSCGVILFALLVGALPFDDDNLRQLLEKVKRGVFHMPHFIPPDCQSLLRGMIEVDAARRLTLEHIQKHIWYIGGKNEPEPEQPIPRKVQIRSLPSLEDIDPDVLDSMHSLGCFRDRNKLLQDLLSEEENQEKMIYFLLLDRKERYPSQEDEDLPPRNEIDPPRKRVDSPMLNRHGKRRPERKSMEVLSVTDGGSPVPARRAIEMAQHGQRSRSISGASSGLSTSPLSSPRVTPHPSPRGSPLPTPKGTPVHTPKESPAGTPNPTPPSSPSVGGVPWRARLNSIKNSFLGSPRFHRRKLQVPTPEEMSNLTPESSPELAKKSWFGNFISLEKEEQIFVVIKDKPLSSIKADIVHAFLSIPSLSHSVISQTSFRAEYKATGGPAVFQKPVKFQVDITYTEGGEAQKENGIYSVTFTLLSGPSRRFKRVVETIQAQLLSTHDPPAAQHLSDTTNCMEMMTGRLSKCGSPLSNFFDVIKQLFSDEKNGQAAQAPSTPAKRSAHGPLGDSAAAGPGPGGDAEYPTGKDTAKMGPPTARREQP

PRK2 = PRK2 (Homo sapiens, UniProt Q16513)
DDR2 = target: T3, DDR2 (Homo sapiens, UniProt Q16832)
T3 sequence (Q16832 22-855): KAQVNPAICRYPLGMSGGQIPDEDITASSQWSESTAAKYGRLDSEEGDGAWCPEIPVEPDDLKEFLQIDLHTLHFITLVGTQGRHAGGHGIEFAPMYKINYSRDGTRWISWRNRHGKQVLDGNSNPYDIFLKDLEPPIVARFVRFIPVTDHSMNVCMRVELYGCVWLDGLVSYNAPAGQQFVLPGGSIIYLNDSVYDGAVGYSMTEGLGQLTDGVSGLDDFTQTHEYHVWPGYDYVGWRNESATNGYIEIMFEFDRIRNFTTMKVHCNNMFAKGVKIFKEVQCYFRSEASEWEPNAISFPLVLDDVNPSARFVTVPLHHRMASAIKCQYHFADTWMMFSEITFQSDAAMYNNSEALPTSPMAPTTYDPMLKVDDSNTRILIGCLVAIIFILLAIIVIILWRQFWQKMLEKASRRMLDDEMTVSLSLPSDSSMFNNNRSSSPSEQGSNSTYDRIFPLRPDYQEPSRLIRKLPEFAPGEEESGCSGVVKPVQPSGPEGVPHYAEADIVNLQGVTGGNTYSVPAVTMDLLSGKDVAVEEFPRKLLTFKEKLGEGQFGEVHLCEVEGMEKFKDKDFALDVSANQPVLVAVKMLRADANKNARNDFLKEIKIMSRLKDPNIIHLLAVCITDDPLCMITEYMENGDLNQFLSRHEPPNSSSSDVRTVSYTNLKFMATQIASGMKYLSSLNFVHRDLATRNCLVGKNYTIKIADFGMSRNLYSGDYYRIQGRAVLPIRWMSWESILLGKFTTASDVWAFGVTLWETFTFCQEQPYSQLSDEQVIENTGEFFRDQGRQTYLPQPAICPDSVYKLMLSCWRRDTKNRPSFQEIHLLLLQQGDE

RSK2 = RSK2 (Homo sapiens, UniProt P51812)
Sequence of RSK2 (P51812 whole entry, species assumed): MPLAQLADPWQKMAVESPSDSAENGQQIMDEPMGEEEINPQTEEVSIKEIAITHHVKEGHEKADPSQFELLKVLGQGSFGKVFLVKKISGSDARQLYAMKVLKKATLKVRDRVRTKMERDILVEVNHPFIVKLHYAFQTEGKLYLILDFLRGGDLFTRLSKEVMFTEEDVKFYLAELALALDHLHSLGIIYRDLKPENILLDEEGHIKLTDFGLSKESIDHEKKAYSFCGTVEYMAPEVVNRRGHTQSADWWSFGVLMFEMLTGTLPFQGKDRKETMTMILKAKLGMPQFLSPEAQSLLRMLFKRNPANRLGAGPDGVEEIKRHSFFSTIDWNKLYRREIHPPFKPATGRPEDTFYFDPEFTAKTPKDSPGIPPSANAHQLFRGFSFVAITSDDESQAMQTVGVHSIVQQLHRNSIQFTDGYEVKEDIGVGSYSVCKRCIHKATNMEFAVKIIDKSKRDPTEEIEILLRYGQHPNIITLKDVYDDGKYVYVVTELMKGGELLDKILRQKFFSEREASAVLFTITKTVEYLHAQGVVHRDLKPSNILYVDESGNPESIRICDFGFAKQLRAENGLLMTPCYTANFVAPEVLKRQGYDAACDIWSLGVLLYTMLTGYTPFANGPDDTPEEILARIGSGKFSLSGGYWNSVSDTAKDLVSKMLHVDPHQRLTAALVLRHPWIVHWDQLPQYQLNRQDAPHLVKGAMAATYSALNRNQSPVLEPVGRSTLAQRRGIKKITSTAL

Sequence of PRK2 (Q16513 whole entry, species assumed): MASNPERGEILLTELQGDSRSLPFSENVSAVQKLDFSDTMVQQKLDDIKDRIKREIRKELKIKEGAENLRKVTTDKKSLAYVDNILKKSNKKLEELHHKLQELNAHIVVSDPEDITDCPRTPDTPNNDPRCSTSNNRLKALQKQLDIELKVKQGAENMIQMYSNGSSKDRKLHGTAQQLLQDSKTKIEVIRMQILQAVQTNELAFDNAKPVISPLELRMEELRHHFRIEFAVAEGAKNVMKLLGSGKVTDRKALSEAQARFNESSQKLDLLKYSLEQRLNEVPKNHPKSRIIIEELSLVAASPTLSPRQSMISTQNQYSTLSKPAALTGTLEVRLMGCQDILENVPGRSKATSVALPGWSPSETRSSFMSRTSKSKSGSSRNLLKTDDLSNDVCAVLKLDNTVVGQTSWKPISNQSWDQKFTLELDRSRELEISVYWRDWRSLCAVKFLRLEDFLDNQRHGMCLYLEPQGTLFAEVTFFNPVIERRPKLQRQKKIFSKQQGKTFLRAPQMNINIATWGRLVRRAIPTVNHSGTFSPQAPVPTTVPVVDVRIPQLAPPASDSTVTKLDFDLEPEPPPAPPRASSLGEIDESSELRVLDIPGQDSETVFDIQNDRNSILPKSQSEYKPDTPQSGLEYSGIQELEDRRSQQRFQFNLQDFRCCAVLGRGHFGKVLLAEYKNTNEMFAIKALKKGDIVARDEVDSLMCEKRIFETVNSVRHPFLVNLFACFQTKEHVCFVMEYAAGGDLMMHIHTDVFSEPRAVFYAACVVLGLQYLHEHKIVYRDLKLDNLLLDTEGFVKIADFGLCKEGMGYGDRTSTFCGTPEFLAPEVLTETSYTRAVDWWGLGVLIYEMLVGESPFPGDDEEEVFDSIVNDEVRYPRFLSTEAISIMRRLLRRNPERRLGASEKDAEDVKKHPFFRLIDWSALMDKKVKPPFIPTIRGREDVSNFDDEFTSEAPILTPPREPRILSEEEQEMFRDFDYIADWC
Sequence of TTBK1 (Q5TCY1 whole entry, species assumed): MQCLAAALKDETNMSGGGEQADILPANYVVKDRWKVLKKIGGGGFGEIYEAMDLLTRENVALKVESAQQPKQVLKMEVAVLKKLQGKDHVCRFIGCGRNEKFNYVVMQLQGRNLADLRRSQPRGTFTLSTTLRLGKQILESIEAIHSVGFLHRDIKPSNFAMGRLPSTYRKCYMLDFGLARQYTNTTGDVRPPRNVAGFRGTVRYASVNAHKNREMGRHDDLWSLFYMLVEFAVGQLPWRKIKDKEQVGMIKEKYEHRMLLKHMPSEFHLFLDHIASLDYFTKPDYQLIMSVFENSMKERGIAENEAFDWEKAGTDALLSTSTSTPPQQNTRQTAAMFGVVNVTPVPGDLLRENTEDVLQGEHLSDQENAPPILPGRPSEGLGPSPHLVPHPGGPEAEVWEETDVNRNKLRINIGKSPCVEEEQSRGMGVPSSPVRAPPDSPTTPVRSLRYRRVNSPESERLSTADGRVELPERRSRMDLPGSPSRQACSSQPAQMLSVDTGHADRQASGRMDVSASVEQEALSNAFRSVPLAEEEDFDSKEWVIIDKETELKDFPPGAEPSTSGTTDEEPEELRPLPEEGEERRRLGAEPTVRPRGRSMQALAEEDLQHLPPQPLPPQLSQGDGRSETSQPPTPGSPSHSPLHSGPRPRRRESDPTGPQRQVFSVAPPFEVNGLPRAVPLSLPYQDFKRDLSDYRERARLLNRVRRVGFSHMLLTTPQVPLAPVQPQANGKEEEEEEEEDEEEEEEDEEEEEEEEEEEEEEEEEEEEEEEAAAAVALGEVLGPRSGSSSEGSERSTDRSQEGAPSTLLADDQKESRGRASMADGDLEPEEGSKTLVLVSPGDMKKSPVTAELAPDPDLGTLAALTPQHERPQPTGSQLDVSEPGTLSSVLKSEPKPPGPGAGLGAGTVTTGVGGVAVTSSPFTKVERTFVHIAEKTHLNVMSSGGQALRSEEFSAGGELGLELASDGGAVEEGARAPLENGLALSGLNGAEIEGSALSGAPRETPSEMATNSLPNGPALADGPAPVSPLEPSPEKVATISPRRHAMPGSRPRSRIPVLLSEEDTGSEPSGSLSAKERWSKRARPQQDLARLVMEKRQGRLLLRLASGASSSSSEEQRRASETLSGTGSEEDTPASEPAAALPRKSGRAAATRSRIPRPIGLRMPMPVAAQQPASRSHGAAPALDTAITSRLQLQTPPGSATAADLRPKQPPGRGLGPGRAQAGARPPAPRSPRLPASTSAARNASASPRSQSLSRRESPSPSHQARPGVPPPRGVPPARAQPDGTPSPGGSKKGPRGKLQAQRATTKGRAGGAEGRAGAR
Sequence of ROCK 2 (O75116 whole entry, species assumed): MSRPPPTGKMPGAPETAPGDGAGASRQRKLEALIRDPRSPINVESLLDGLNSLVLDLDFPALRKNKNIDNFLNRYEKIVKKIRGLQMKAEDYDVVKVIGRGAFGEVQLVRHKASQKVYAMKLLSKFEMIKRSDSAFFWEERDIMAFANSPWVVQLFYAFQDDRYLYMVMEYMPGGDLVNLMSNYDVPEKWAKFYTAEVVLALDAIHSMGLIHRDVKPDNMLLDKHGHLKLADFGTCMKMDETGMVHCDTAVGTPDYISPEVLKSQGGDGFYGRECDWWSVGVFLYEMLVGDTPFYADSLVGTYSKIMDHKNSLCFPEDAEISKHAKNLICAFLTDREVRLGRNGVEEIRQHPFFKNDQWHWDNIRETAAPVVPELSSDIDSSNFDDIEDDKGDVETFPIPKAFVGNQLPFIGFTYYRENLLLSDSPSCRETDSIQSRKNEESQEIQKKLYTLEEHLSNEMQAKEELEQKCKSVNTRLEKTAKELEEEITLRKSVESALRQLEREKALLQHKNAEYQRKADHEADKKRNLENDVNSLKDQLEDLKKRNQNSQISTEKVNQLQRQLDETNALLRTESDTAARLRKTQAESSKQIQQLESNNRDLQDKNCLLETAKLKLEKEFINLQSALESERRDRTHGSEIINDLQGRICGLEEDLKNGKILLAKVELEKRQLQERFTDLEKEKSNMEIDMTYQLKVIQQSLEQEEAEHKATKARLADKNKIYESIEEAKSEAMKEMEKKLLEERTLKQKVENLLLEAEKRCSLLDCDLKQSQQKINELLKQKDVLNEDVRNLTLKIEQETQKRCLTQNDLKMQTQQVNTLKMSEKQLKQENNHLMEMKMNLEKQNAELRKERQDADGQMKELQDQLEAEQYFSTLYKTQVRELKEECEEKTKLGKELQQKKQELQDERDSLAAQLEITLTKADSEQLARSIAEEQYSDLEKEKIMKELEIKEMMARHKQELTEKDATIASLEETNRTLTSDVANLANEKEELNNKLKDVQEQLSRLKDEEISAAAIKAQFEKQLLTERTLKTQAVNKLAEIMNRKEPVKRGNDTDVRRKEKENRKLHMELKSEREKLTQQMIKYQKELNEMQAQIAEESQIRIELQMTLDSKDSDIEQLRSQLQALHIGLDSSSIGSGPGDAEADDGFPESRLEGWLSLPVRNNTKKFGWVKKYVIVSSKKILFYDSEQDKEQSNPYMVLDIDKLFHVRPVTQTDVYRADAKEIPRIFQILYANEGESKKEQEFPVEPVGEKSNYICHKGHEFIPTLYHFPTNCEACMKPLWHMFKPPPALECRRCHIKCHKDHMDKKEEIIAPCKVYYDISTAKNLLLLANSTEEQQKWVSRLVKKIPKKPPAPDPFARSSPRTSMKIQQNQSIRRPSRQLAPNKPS
Sequence of ERK1 (P27361 whole entry, species assumed): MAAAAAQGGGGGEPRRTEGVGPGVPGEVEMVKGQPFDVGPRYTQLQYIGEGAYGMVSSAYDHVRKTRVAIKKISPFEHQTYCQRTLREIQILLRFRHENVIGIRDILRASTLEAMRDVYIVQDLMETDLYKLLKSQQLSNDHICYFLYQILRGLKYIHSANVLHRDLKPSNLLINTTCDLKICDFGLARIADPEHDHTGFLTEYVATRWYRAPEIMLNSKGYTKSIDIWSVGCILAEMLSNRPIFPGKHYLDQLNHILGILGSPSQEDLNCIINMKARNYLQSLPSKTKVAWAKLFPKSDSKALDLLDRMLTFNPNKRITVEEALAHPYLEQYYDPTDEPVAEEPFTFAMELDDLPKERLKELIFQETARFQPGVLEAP

NCCCC[C@H](NC(=O)[C@H](CC(=O)O)NC(=O)[C@H](CC(=O)O)NC(=O)[C@H](CC(=O)O)NC(=O)[C@H](CC(=O)O)NC(=O)[C@H](CC(=O)O)NC(=O)[C@@H](CC(=O)O)NC(=O)CCCCCCCn1cnc2c(Br)c(Br)c(Br)c(Br)c21)C(=O)O [TBBI-OcA-(D-Asp)-(L-Asp)5-(L-Lys)-OH] (X1-[dD]DDDDDK-OH)
remaining activity at 1 µM (p38b MAPK): 122%
remaining activity at 1 µM (ERK1): 110%
remaining activity at 1 µM (NUAK1): 58%
remaining activity at 1 µM (MINK1): 139%
remaining activity at 1 µM (MST3): 100%
remaining activity at 1 µM (S6K1): 62%
remaining activity at 1 µM (GSK3b): 46%
remaining activity at 1 µM (ROCK 2): 91%
remaining activity at 1 µM (TTBK1): 90%
remaining activity at 1 µM (BRSK2): 75%
remaining activity at 1 µM (PRK2): 92%
remaining activity at 1 µM (DDR2): 109%
remaining activity at 1 µM (RSK2): 70%
